The target in assay [1] is A/Japan/305/1957 (H2N2) hemagglutinin ectodomain (influenza A virus A/Japan/305/1957 (H2N2)). Briefly: negative-stain EM, single-particle 3D reconstruction.
Assay [2] has as its target A/Hong Kong/1/1968 (H3N2) hemagglutinin ectodomain, biotinylated (influenza A virus A/Hong Kong/1/1968 (H3N2)). Briefly: BLI.
Assay [3] shares this target. Nature of the assay: ITC. A general note: Isothermal titration calorimetry measures the heat released or taken up as one component is titrated into another.
Assay [4] has the same target. Briefly: BLI. This is another data set of the same source. (BLI is a label-free optical method that tracks binding on a fibre tip over time.)
Assay [5] deals with A/Vietnam/1203/2004 (H5N1) hemagglutinin ectodomain (influenza A virus A/Vietnam/1203/2004 (H5N1)).
The target of assay [6] is hemagglutinin of A/California/04/2009 (H1N1) (influenza A virus A/California/04/2009 (H1N1)) (UniProt C3W5S1).
Assay [7] concerns the target hemagglutinin of A/Brisbane/59/2007 (H1N1) (influenza A virus A/Brisbane/59/2007 (H1N1)).
Assay [8] deals with hemagglutinin of A/Virginia/670/1987 (H1N1) (influenza A virus A/Virginia/670/1987 (H1N1)).
Assay [9] concerns the target hemagglutinin of A/Guiyang/1/1957 (H2N2) (influenza A virus A/Guiyang/1/1957 (H2N2)).
In assay [10] the target is hemagglutinin of A/Hong Kong/1073/1999 (H9N2) (influenza A virus A/Hong Kong/1073/1999 (H9N2)).
Assay [11] addresses hemagglutinin of A/Memphis/3/2008 (H1N1) (influenza A virus A/Memphis/3/2008 (H1N1)).

A word on the stoichiometry N: it is the number of molecules, sites or subunits per partner or assembly. Consider C05 Fab (Lys-C digestion of IgG), for which the stoichiometry N in assay [1] worked out at 3.
The term Kd denotes a measure of binding affinity in units of concentration. Read a low Kd as a tighter complex. For the substance “C05 Fab (recombinant, for binding studies)”, the results for the equilibrium dissociation constant (Kd) in assay [2], in assay [3] and in [4] were 500 nM, 100 nM and 430 nM, respectively.
Take C05 IgG (antibody): the MIC, hemagglutination inhibition (HAI) in assay [5] is above 100 µg/mL; in [6] it was above 100 µg/mL; in assay [7], 1.56 µg/mL; in [8], above 100 µg/mL; in assay [11], below 2.3 µg/mL. Moreover, the results for the MIC, microneutralization (MN) in assay [9] and in [10] were 18 µg/mL and 90 µg/mL, respectively.

Values taken from publication PMC3538848.
